# Changes are numbered by the printed parent chain.
# T1: hFcgRIIaR (human, UniProt P12318 34-217)
# T1 construct: extracellular domain; also called human FcγRIIa type R (R131)
# T1 sequence (looked up): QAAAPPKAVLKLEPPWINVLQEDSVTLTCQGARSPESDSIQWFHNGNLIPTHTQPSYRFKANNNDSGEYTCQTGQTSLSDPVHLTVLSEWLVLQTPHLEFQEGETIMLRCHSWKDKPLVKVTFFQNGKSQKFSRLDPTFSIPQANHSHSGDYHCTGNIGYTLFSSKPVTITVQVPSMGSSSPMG
# T2: hFcgRIIaH (human, UniProt P12318 34-217)
# T2 construct: extracellular domain; also called human FcγRIIa type H (H131)
# T2 sequence (looked up): T1 sequence (looked up) with R134H
# T3: hFcgRIIb (human, UniProt P31994 43-217)
# T3 construct: extracellular domain; also called human FcγRIIb
# T3 sequence (looked up): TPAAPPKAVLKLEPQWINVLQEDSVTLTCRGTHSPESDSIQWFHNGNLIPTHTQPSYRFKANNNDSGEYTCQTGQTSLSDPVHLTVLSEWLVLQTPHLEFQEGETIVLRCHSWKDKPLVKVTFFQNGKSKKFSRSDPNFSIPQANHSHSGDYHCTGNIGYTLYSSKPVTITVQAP
# B1: dBBK070-P253 (antibody, human IgG1, kappa, V domains shown)
# VH: QVQLVQSGAEVKKPGSSVKVSCKASGGWFSHYSISWVRQAPGQGLEWMGVVWPIRSFATYAQKFQGRVTITADESTSTAYMELSSLRSEDTAVYYCARDNPVTSWPHGAFDIWGQGTLVTVSS
# VL: DIVMTQSPLSLPVTPGEPASISCRSSQSLVRPFGNTFLSWYLQKPGQSPQLLIYEISTRFYGVPDRFSGSGSGTDFTLKISRVEAEDVGVYYCMQAHQFPRTFGQGTKVEIKR
# B2: dBBK026-P253 (antibody, human IgG1, kappa, V domains shown)
# VH: QVQLVQSGAEVKKPGSSVKVSCKASGGEFSNYFISWVRQAPGQGLEWMGMVHPIEGWAVYAQKFQGRVTITADESTSTAYMELSSLRSEDTAVYYCARDRPVFCCPRGAFDIWGQGTLVTVSS
# VL: B1 VL with R31S, F33G, G34D, S57E, T58R, H97S, Q98T
# B3: dBBK060-P253 (antibody, human IgG1, kappa, V domains shown)
# VH: QVQLVQSGAEVKKPGSSVKVSCKASGGDFSNYVISWVRQAPGQGLEWMGFINPIYGAAGYAQKFQGRVTITADESTSTAYMELSSLRSEDTAVYYCARDEPVASLPHGAFDIWGQGTLVTVSS
# VL: B1 VL with R31D, F33W, T58N, H97K, Q98D, Q105P
# B4: dBBK051-P253 (antibody, human IgG1, kappa, V domains shown)
# VH: QVQLVQSGAEVKKPGSSVKVSCKASGGGFSSYGISWVRQAPGQGLEWMGALFPISSQASYAQKFQGRVTITADESTSTAYMELSSLRSEDTAVYYCARDRPVDYVPHGAFDIWGQGTLVTVSS
# VL: B1 VL with R31S, F33G, G34D, S57E, T58R, H97S, Q98T
# B5: dBBK101-P253 (antibody, human IgG1, kappa, V domains shown)
# VH: QVQLVQSGAEVKKPGSSVKVSCKASGGAFSYYLISWVRQAPGQGLEWMGFVDPIRGGAFYAQKFQGRVTITADESTSTAYMELSSLRSEDTAVYYCARDRPVNAAPRGAFDIWGQGTLVTVSS
# VL: B1 VL with R31G, P32D, F33R, F37Y, S57G, T58S, R59I, H97A, Q98E
# B6: A375-SCF059a/B167-Lamlib (antibody, human IgG1, lambda)
# heavy: EVQLVESGGGLVKPGGSLRLSCAASGFTFSTFTMNWVRQAPGKGLEWVSSISSKSTYIEYADSFKVRFTISRDNAKNSLYLQMNSLRAEDTAVYYCARYGAKNFLNWVFDYWGQGTLVTVSSASTKGPSVFPLAPSSKSTSGGTAALGCLVKDYFPEPVTVSWNSGALTSGVHTFPAVLQSSGLYSLSSVVTVPSSSLGTQTYICNVNHKPSNTKVDKRVEPKSCDKTHTCPPCPAPELLNGPSVFLFPPKPKDTLMISRTPEVTCVVVDVSDEDPEVKFNWYVDGVEVHNAKTKPREEQYNSTYRVVSVLTVLHRDWLNGKEYKCKVSNKALPKPIEKTISKAKGQPREPQVYTLPPSREEMTKNQVSLTCLVKGFYPSDIAVEWESNGQPENNYKTTPPVLDSDGSFFLYSKLTVKKSRWQQGNVFSCSVMHEALHNHYTQKSLSLSP
# light: QSALTQPPSASGSPGQTVTISCTGTRYDVGYYEYVSWYQQHPGKAPKLMIYETSKRLSGVPDRFSGSKSGNTASLTVSGLQAEDEADYYCSSYRYEHQVSFGGGTKLTVLGQPKAAPSVTLFPPSSEELQANKATLVCLISDFYPGAVTVAWKADSSPVKAGVETTTPSKQSNNKYAASSYLSLTPEQWKSHRSYSCQVTHEGSTVEKTVAPTECS
# notes: copies: 2 + 2
# B7: A375-SCF059aPh/B167-Lamlib (antibody, human IgG1, lambda)
# heavy: B6 heavy with L240W
# light: B6 light
# notes: copies: 2 + 2
# B8: A375-SCF060a/B167-Lamlib (antibody, human IgG1, lambda)
# heavy: B6 heavy with L240W, Q300L, K331T, K418D
# light: B6 light
# notes: copies: 2 + 2
# B9: A375-TT14/B167-Lamlib (antibody, human IgG1, lambda)
# heavy: B6 heavy with R219K, L239Y, N241G, P243D, T255V, V269I, D273H, T312P, R316Q, K418D
# light: B6 light
# notes: copies: 2 + 2
# B10: A375-TT16/B167-Lamlib (antibody, human IgG1, lambda)
# heavy: B6 heavy with R219K, L239Y, N241G, G242D, P243D, T255V, D273H, T312P, R316Q, K418D
# light: B6 light
# notes: copies: 2 + 2
# Molecular target: T4, hCD137.3.4-F.G1d (human)
# T4 construct: Portion of the human CD137 extracellular region linked to an antibody constant region
# Test: ELISA; 500 uM kynurenine, Ab 10 ug/mL
# Protocol: (§1) Whether the obtained antibodies bind to antigens having a partial sequence of CD137 was assessed by ELISA. […] After the unbound antigens were removed from the plates by washing each well of the plates with the Wash Buffer, the wells were blocked with 50 μL of Blocking Buffer (BlockAce-containing TBS) for one hour or more. To wells from which the Blocking Buffer was removed, each well was supplemented with 10 μL of the purified antibodies prepared at 10 μg/mL in TBS with a final concentration of 500 μM L-kynurenine or TBS with a final concentration of 500 μM kynurenine, and it was left at rest for one hour. AP-conjugated anti-human Kappa antibodies (BIOSOURCE) diluted in TBS with a final concentration of 500 μM kynurenine were added to each well after washing with the Wash Buffer containing a final concentration of 500 μM kynurenine (TBS with 0.1% Tween20). After one hour of incubation, the BluePhos phosphate substrate (KPL) was added after washing with Wash Buffer containing 500 μM kynurenine. Color development of the solution in each well was measured by absorbance at 620 nm after the color development reaction of the solution in each well was stopped by adding the BluePhos Stop Solution. The ratio of absorbance by setting the value of the well with an antibody concentration of 0 μg/mL to 1 is shown.
# 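For binding per 1RU of antibody in this document: biacore SPR with antibody captured on an anti-human Fab lambda chip, human FcγR injected at 1000 nM (FcγRIa at 8 nM) in pH 7.4 phosphate buffer.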
row,Binder,absorbance ratio
1,B1,1.2

# Molecular target: T5, hCD137.2.3-F.G1d (human)
# T5 construct: Portion of the human CD137 extracellular region linked to an antibody constant region
# Test: ELISA; 500 uM kynurenine, Ab 10 ug/mL
# Protocol: as §1
# T5 sequence (chain, as listed by the source limits assumed): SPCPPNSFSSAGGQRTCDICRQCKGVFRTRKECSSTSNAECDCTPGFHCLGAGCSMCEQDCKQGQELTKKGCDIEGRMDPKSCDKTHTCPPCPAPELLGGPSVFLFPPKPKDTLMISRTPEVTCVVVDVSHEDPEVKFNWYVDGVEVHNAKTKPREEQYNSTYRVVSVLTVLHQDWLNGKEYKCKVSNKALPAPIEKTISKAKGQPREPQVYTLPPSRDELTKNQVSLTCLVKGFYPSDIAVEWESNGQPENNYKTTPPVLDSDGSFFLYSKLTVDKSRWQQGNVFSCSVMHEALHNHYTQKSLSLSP
row,Binder,absorbance ratio
1,B2,1.1
2,B3,1.2

# Molecular target: T6, hCD137.1-F-G1d (human)
# T6 construct: Portion of the human CD137 extracellular region linked to an antibody constant region
# Test: ELISA; 500 uM kynurenine, Ab 10 ug/mL
# Protocol: as §1
# T6 sequence (chain, as listed by the source limits assumed): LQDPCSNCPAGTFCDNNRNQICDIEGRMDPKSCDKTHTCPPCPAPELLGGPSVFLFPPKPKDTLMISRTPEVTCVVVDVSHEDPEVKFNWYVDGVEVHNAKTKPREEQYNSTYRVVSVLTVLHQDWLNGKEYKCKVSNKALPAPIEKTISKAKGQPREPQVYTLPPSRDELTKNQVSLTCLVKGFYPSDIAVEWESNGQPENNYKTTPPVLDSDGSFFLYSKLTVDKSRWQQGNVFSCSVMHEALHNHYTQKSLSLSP
row,Binder,absorbance ratio
1,B2,1
2,B4,1.2
3,B3,1.2
4,B1,1.8
5,B5,1.3

# Molecular target: T7, hCD137.1.2-F.G1d (human)
# T7 construct: Portion of the human CD137 extracellular region linked to an antibody constant region
# Test: ELISA; 500 uM kynurenine, Ab 10 ug/mL
# Protocol: as §1
# T7 sequence (chain, as listed by the source limits assumed): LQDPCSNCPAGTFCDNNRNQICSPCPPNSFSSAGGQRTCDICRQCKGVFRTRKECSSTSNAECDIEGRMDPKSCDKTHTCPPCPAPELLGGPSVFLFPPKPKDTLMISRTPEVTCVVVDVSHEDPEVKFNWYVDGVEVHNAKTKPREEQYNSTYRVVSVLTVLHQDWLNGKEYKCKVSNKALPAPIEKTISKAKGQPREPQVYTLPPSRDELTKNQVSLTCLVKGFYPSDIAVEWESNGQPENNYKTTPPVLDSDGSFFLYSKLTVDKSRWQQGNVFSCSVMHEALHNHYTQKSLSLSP
row,Binder,absorbance ratio
1,B2,1.2
2,B4,1.2
3,B3,1.4
4,B5,1.2

# Molecular target: T1, hFcgRIIaR
# Test: SPR 25C; relative to A375-G1T3/B167-Lamlib;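 also: SPR with antibody captured on an anti-human Fab-lambda chip, human FcγR analyte at 8 nM for FcγRIa or 1000 nM for the others, pH 7.4, FcγR RU per captured antibody unit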
row,Binder,relative binding amount
1,B6,0.69
2,B7,0.69
3,B8,0.99
4,B9,0.14
5,B10,0.77

# Molecular target: T8, hFcgRIa (human, UniProt P12314 16-292)
# T8 construct: extracellular domain; also called human FcγRIa; FcγRI
# Test: SPR 25C; relative to A375-G1T3/B167-Lamlib;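 also: SPR with antibody captured on an anti-human Fab-lambda chip, human FcγR analyte at 8 nM for FcγRIa or 1000 nM for the others, pH 7.4, FcγR RU per captured antibody unit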
# T8 sequence (P12314 16-292): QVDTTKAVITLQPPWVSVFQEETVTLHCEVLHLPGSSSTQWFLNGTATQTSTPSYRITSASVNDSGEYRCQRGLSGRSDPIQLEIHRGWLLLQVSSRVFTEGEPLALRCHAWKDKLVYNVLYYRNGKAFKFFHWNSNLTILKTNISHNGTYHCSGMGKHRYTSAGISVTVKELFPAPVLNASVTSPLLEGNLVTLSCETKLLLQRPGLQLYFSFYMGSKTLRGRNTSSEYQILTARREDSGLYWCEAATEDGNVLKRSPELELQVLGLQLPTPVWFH
row,Binder,relative binding amount
1,B6,0.47
2,B7,0.11
3,B8,0.03
4,B9,0.05
5,B10,0.04

# Molecular target: T9, hFcgRIIIaF (human, UniProt P08637 17-208)
# T9 construct: extracellular domain; also called human FcγRIIIa allotype F158
# Test: SPR 25C; relative to A375-G1T3/B167-Lamlib;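 also: SPR with antibody captured on an anti-human Fab-lambda chip, human FcγR analyte at 8 nM for FcγRIa or 1000 nM for the others, pH 7.4, FcγR RU per captured antibody unit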
# T9 sequence (P08637 17-208): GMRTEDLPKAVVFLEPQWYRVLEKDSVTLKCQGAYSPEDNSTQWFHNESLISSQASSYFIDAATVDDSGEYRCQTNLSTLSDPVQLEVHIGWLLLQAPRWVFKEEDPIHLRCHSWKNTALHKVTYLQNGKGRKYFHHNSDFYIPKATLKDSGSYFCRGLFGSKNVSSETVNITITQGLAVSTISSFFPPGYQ
row,Binder,relative binding amount
1,B6,0.05
2,B7,0.01
3,B8,0.05
4,B9,0
5,B10,0

# Molecular target: T2, hFcgRIIaH
# Test: SPR 25C; relative to A375-G1T3/B167-Lamlib;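 also: SPR with antibody captured on an anti-human Fab-lambda chip, human FcγR analyte at 8 nM for FcγRIa or 1000 nM for the others, pH 7.4, FcγR RU per captured antibody unit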
row,Binder,relative binding amount
1,B6,0.88
2,B7,0.59
3,B8,0.82
4,B9,0.07
5,B10,0.22

# Molecular target: T3, hFcgRIIb
# Test: SPR 25C; relative to A375-G1T3/B167-Lamlib
row,Binder,relative binding amount
1,B6,3.27
2,B7,2.66
3,B8,4.31
4,B9,7.34
5,B10,9.94

# Molecular target: T10, hFcgRIIIaV (human, UniProt P08637 17-208)
# T10 construct: extracellular domain; also called human FcγRIIIa allotype V158
# Test: SPR 25C; relative to A375-G1T3/B167-Lamlib
# T10 sequence (P08637 17-208 F176V): as the sequence (P08637 17-208) above, with F160V counted along it
row,Binder,relative binding amount
1,B6,0.03
2,B7,0.04
3,B8,0.01
4,B9,0
5,B10,0

# Molecular target: T1, hFcgRIIaR
# Test: SPR 25C
# Protocol: (§2) Biacore T200 (GE Healthcare) was used to evaluate the binding activity to the respective human Fcγ receptor (hereafter referred to as FcγR). Measurement was performed at 25° C. using 50 mM phosphate, 150 mM NaCl, 0.05 w/v %-P20, pH 7.4 as buffer. About 1000 RU of antibody was captured using a sensor chip immobilized with CaptureSelect™ Human Fab-lambda Kinetics Biotin Conjugate (Thermo Fisher Scientific) as a molecule for ligand capturing. Human FcγR was diluted to 8 nM for FcγRIa and 1000 nM for other FcγR in the measurement buffer, and it was interacted to the captured antibody. The binding activity of each antibody to FcγR was assessed by calculating the binding amount of FcγR (RU) per unit amount of antibody using Biacore T200 Evaluation Software 2.0.
row,Binder,binding per 1RU of antibody [RU]
1,B6,0.0319
2,B7,0.0319
3,B8,0.0459
4,B9,0.0067
5,B10,0.0359

# Molecular target: T8, hFcgRIa
# Test: SPR 25C
# Protocol: as §2
row,Binder,binding per 1RU of antibody [RU]
1,B6,0.038
2,B7,0.0089
3,B8,0.0021
4,B9,0.0045
5,B10,0.0034

# Molecular target: T9, hFcgRIIIaF
# Test: SPR 25C
# Protocol: as §2
row,Binder,binding per 1RU of antibody [RU]
1,B6,0.001
2,B7,0.0003
3,B8,0.0011
4,B9,0
5,B10,0.0001

# Molecular target: T2, hFcgRIIaH
# Test: SPR 25C
# Protocol: as §2
row,Binder,binding per 1RU of antibody [RU]
1,B6,0.0502
2,B7,0.0332
3,B8,0.0463
4,B9,0.0042
5,B10,0.0126

# Molecular target: T3, hFcgRIIb
# Test: SPR 25C
# Protocol: as §2
row,Binder,binding per 1RU of antibody [RU]
1,B6,0.0358
2,B7,0.0291
3,B8,0.0472
4,B9,0.0805
5,B10,0.109

# Molecular target: T10, hFcgRIIIaV
# Test: SPR 25C
# Protocol: as §2
row,Binder,binding per 1RU of antibody [RU]
1,B6,0.0021
2,B7,0.0028
3,B8,0.0008
4,B9,0.0003
5,B10,-0.0002

# Molecular target: human FcRn (human, UniProt P55899 24-290; P61769 21-119, limits assumed)
# Test: SPR 25C pH 6.0, steady state;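 also: antibody captured on chip via anti-human Fab-lambda ligand, human FcRn injected as analyte in 50 mM phosphate buffer with 150 mM NaCl and P20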
# human FcRn, sequence (P55899 24-290 limits assumed, chain 1 of 2): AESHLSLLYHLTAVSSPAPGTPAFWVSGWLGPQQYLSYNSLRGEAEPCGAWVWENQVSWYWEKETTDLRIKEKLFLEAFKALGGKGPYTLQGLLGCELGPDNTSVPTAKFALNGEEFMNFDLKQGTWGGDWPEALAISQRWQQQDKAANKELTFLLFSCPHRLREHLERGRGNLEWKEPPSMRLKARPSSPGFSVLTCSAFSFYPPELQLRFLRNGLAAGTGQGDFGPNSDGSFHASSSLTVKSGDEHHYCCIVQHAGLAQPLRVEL
# human FcRn, sequence (P61769 21-119 limits assumed, chain 2 of 2): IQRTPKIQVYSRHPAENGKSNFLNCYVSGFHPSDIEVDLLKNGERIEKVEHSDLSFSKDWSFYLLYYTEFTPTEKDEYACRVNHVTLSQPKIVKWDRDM
row,Binder,Kd [nM]
1,B6,1030
2,B7,1050
3,B8,1010
4,B9,1770
5,B10,1510
